Measured values taken from patent US20160208003A1 (AFFITECH RESEARCH, published 2016).
Changes are numbered by the printed parent chain. Several values for one entry are separate records, joined by “and”; a condition that tells them apart may be missing. Identical values can stand only once.

Assays:
[1] = biological target: T1, human CC chemokine receptor 4 (CCR4) (human, UniProt P51679 1-360); assay: flow cytometry competition on DT-40-CCR4+ cells; IgG titrated, competitor biotinylated TARC (ca. 20 nM)
T1 construct: whole, on cells; Always presented on cells; also called CD194; human CCR4
T1 sequence (looked up): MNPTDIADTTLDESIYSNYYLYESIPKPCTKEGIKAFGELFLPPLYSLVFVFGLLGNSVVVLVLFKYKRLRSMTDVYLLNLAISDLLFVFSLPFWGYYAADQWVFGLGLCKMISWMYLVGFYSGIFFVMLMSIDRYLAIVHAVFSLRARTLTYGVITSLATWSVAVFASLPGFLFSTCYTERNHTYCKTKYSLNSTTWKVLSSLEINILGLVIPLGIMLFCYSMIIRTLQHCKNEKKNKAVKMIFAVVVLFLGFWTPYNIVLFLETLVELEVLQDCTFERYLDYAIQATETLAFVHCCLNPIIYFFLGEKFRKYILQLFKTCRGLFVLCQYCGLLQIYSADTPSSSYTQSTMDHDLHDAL
Experimental: (§1) The competition binding assays were performed with biotinylated MDC or biotinylated TARC on DT-40-CCR4+ and CCRF-CEM cells. DT40 and CCRF-CEM cells were cultured as described in Example 2. TARC and MDC were biotinylated using standard procedures. The biotinylation process causes some losses, so the concentrations of biotinylated MDC and TARC recited herein are approximate.
(§2) The cells were harvested from culture flasks, washed 2 times with PBS (400×g, 5 min, 4° C.) and resuspended in PBS containing 0.2% BSA and 0.09% NaN3. 1×10^5 cells per well were aliquoted into V-shaped 96-well plates (Greiner Bio-One, Frikenhausen, Germany). Cells were centrifuged (400×g, 5 min, 4° C.) and resuspended in 50 μl IgG, single chain or unlabeled ligand (1:10 dilution series starting on 100/500/26, 4 μg/ml) mixed with a fixed concentration of biotinylated ligand (10 or 20 nM, see legend to FIG. 24). The cells were incubated for 2 hours at 4° C. and mixed with a pipette every 45 min. The cells were washed three times with 150 μl PBS with 0.2% BSA and 0.09% NaN3 and stained with 3 μg/ml streptavidin PE (BD Biosciences) for 45 minutes at 4° C. […] Apparent binding affinities (KD) were calculated according to the following equation derived from previously described methods (Kipriyanov et al, 1997b; Schodin & Kranz, 1993): […]

[2] = biological target: T1, human CC chemokine receptor 4 (CCR4); assay: flow cytometry competition on CCRF-CEM cells; unlabelled IgG titrated, competitor 0.7 nM biotinylated IgG 9E
Experimental: Further competition experiments were carried out to assess whether or not the test antibodies recognise the same or overlapping epitopes, and to determine their relative affinities for CCR4. Antibodies 9E10J, 9E and KM3060var were tested using labelled 9E as a competitor.
(§3) DT40 and CCRF-CEM cells were cultivated as described in Example 2. The cells were harvested from culture flasks, washed 2 times with PBS (400×g, 5 min, 4° C.) and resuspended in PBS containing 0.2% BSA and 0.09% NaN3. 1×10^5 cells per well were aliquoted into V-shaped 96-well plates (Griner Bio-One, Frikenhausen, Germany). Cells were centrifuged (400×g, 5 min, 4° C.) and resuspended in 50 μl IgG 9E10J or KM3060var (dilution series starting at 5 μg/ml) mixed with biotinylated competitor antibody 9E (0.1 or 0.5 μg/ml). The cells were incubated for 2 hours at 4° C., mixing with a pipette every 45 min. The cells were washed three times with 150 μl PBS with 0.2% BSA and 0.09% NaN3 and stained with 3 μg/ml streptavidin PE (BD Biosciences) for 45 minutes at 4° C. Cells were washed, resuspended in 200 μl PBS with 0.2% BSA and 0.09% NaN3, and transferred to a U-shaped 96 well Costar (Corning, Schiphol-Rijik, The Netherlands) plate for flow cytometry using an FACS Canto II flow cytometer (BD Biosciences, Heidelberg, Germany).

[3] = biological target: T1, human CC chemokine receptor 4 (CCR4); assay: cell-based or functional assay
[4] = biological target: T1, human CC chemokine receptor 4 (CCR4); assay: calculated from the IC50; CCRF-CEM cells, competitor biotinylated MDC
Experimental: as §1, §2

[5] = biological target: T1, human CC chemokine receptor 4 (CCR4); assay: flow cytometry competition on CCRF-CEM cells; IgG titrated, competitor biotinylated TARC (ca. 20 nM)
Experimental: as §1, §2

[6] = biological target: T1, human CC chemokine receptor 4 (CCR4); assay: calculated from the IC50; DT-40-CCR4+ cells, competitor 3.3 nM biotinylated IgG 9E
Experimental: as §3

[7] = biological target: T1, human CC chemokine receptor 4 (CCR4); assay: calculated from the IC50 (KD=IC50/(1+[bio-MDC]/KD MDC)); DT-40-CCR4+ cells, competitor biotinylated MDC
[8] = biological target: T1, human CC chemokine receptor 4 (CCR4); assay: flow cytometry, IgG titration on CCR4+ HEK293T cells; one site-specific binding fit (Prism)
Experimental: (§4) The IgG forms of antibodies 17G, 9E and KM3060var using various CCR4⁺ cell types were used (see Example 2).
(§5) For the flow cytometry experiments, the cells were harvested from the culture flasks, washed 2 times with PBS, re-suspended in PBS with 0.2% BSA and 0.09% NaN₃ and finally aliquoted 1×10⁵ cells per well into V-shaped 96-well plates (Greiner Bio-One, Frickenhausen, Germany). Cells were centrifuged at 400×g for 5 min and then incubated at 4° C. for 45 min with different antibody dilutions.
(§6) After washing with PBS with 0.2% BSA and 0.09% NaN₃, the cells were stained with 10 μg/ml of RPE-conjugated goat anti-human IgG (AbDSerotec, Düsseldorf, Germany) for 30 minutes at 4° C. The stained cells were washed, re-suspended in 200 μl PBS with 0.2% BSA and 0.09% NaN₃ and transferred to a U-shaped 96-well plate (Corning, Schiphol-Rijk, The Netherlands) for acquisition on EasyCyte flow cytometer (Guava Technologies, Hayward, Calif., USA).

[9] = biological target: T1, human CC chemokine receptor 4 (CCR4); assay: flow cytometry, IgG titration on CCRF-CEM cells; one site-specific binding fit (Prism)
Experimental: as §4, §5, §6

B1: 9E10J IgG (full length human IgG1, lambda) (antibody, V domains shown)
VH: QVQLVQSGAEVKKPGSSVKVSCKASGGTFSSYAISWVRQAPGQGLEWMGGIIPIFGTANYAQKFQGRVTMTRDTSTSTVYMELSSLRSEDTAVYYCARRGGSYFDYWGQGTLVTVSS
VL: SYVLTQPPSASGTPGQSVTISCSGSTSNIGSHYVFWYQQLPGTAPRLLIYRNHQRPSGVPDRLSGSKSGTSASLAISGLRSEDEADYYCAVWDDTLSGWVFGGGTKLTVLG
notes: also called IgG 9E10J; unmodified 9E10J
- IC50 [1]: 0.26 nM and 0.4 nM
- IC50 [2]: 0.07 nM
- ADCC of CCRF-CEM cells, EC50 (mean, N=2) [3]: 8.7 ng/mL
- Kd [4]: 0.2 nM
- IC50 [5]: 4.26 nM and 4.57 nM
- Kd [6]: 0.09 nM
- Kd [7]: 0.01 nM

B2: 9E IgG (full length human IgG1, lambda) (antibody, V domains shown)
VH: B1 VH with S31N, M70I, R72A, T74E, V79A
VL: B1 VL
notes: also called IgG 9E; IgG1 9E
- IC50 [2]: 0.38 nM
- Kd [8]: 0.36 nM
- Kd [9]: 0.39 nM
